The target of this test is Recombinant His-tagged Pfs25, P13829. Briefly: BLI. To be noted: chain shown with the change; immobilized Pfs25 and mutant Fab analyte; parent: est. 4.6; read off a plot.

B1: 2544 Fab κC:P94T (protein)
chain 1: EVQLVESGGGLVQPGGSLRLSCVASGFTFSNYNMNWVRQAPGKGLEWLSYISSSSGTIYYADSVKGRFTISRDNAKNSMYLQMNSLRAEDTAVYYCVRVEYYYGSSGYYYDFDSWGQGTLVTVSS
chain 2: DIVMTQSPLSLPVTPGEPASISCRSSQSLLHNGYNYLDWYLQKPGQSPQLLIYLGSNRASGVPDRFSGSGSGTDFTLKISRVEAEDVGVYYCMQTLQTFTFGQGTRLEIK
By Kd is commonly meant the equilibrium constant for the complex coming apart. Regarding B1, the dissociation constant (Kd) came out at 14 nM.

B2: 2544 Fab HC:D100GY (protein)
chain 1: EVQLVESGGGLVQPGGSLRLSCVASGFTFSNYNMNWVRQAPGKGLEWLSYISSSSGTIYYADSVKGRFTISRDNAKNSMYLQMNSLRAEDTAVYYCVRVEYYYGSSGYYYYFDSWGQGTLVTVSS
chain 2: DIVMTQSPLSLPVTPGEPASISCRSSQSLLHNGYNYLDWYLQKPGQSPQLLIYLGSNRASGVPDRFSGSGSGTDFTLKISRVEAEDVGVYYCMQTLQPFTFGQGTRLEIK
For B2, the Kd came to 18 nM.

B3: 2544 Fab κC:F95P (protein)
chain 1: EVQLVESGGGLVQPGGSLRLSCVASGFTFSNYNMNWVRQAPGKGLEWLSYISSSSGTIYYADSVKGRFTISRDNAKNSMYLQMNSLRAEDTAVYYCVRVEYYYGSSGYYYDFDSWGQGTLVTVSS
chain 2: DIVMTQSPLSLPVTPGEPASISCRSSQSLLHNGYNYLDWYLQKPGQSPQLLIYLGSNRASGVPDRFSGSGSGTDFTLKISRVEAEDVGVYYCMQTLQPPTFGQGTRLEIK
In the case of B3, the Kd worked out at 22000 nM.

B4: 2544 Fab HC:G55S (protein)
chain 1: EVQLVESGGGLVQPGGSLRLSCVASGFTFSNYNMNWVRQAPGKGLEWLSYISSSSSTIYYADSVKGRFTISRDNAKNSMYLQMNSLRAEDTAVYYCVRVEYYYGSSGYYYDFDSWGQGTLVTVSS
chain 2: DIVMTQSPLSLPVTPGEPASISCRSSQSLLHNGYNYLDWYLQKPGQSPQLLIYLGSNRASGVPDRFSGSGSGTDFTLKISRVEAEDVGVYYCMQTLQPFTFGQGTRLEIK
Consider B4, for which the Kd was determined as 14 nM.

B5: 2544 Fab κC:T91A (protein)
chain 1: EVQLVESGGGLVQPGGSLRLSCVASGFTFSNYNMNWVRQAPGKGLEWLSYISSSSGTIYYADSVKGRFTISRDNAKNSMYLQMNSLRAEDTAVYYCVRVEYYYGSSGYYYDFDSWGQGTLVTVSS
chain 2: DIVMTQSPLSLPVTPGEPASISCRSSQSLLHNGYNYLDWYLQKPGQSPQLLIYLGSNRASGVPDRFSGSGSGTDFTLKISRVEAEDVGVYYCMQALQPFTFGQGTRLEIK
With B5, the Kd was 12 nM.

Values taken from publication PMC6760140.
